Test results reported in article PMC2115046.
pKd: −log10 of the molar value. Values joined by “and” are separate entries in the source; they are usually repeats but may differ in a detail not shown here. Identical values can stand only once. Like-named read-outs stand apart in the source and are kept apart here.

What was measured:
[1] = target: G-actin, rabbit skeletal muscle (rabbit) (UniProt P68135); experiment: dissociation kinetics by etheno-ATP fluorescence decay
[2] = target: G-actin, rabbit skeletal muscle (rabbit) (UniProt P68135); experiment: association kinetics by inactivation of etheno-ATP exchange
[3] = target: G-actin, rabbit skeletal muscle (rabbit) (UniProt P68135); experiment: other fluorescence titration
[4] = target: G-actin, rabbit skeletal muscle (rabbit) (UniProt P68135)

Chain of 14NT, 14-kD fragment of human plasma gelsolin containing the NH2 terminal (domain or fragment) (P06396 28-782): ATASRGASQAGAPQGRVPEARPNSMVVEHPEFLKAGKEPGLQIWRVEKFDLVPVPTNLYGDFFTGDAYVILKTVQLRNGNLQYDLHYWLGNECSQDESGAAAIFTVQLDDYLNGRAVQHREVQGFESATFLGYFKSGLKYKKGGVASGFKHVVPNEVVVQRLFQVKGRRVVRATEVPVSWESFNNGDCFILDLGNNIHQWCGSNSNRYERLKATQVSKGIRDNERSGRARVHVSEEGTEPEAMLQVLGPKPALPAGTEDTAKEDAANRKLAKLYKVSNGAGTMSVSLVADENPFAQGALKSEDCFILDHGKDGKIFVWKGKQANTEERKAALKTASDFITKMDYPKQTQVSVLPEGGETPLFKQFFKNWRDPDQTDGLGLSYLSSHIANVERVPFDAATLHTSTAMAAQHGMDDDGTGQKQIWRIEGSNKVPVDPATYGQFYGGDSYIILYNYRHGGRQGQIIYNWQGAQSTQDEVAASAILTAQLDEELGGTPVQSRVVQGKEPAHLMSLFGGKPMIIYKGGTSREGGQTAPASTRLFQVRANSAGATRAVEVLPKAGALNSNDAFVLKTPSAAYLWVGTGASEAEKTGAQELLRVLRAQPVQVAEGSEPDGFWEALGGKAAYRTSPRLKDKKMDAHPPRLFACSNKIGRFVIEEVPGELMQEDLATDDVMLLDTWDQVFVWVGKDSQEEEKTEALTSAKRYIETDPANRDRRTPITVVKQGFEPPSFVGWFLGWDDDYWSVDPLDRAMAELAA
Chain of 41CT, 41-kD COOH-terminal half of human plasma gelsolin (domain or fragment) (P06396 28-782): as above

Row | koff [1] [s⁻¹] | t1/2 of the complex [1] [h] | kon [2] [M⁻¹ s⁻¹] | half-maximal saturation [3] | koff [3] [s⁻¹] | stoichiometry N [3] | Ka [4] [M⁻¹] | pKd [4] | pKd [3] | Substance
1 | 1.35e-06 | 143 | 299000 | 1 nM and 2 nM | 0.0003 | 1 | 2.2e+11 | 11.30 to 11.40 | – | 14NT, 14-kD fragment of human plasma gelsolin containing the NH2 terminal (domain or fragment)
2 | – | – | – | – | – | 1 | – | – | 7.60 | 41CT, 41-kD COOH-terminal half of human plasma gelsolin (domain or fragment)
